In US20230272117A1 (published 2023):

Experiments:
[1] = molecular target: T1, human ATP Binding Cassette Subfamily C Member 1 (ABCC1) (UniProt P33527 1-1531); experiment: FACS titration on H69AR cells
[2] = molecular target: T1, human ATP Binding Cassette Subfamily C …; experiment: FACS titration on C6 cells
[3] = molecular target: T1, human ATP Binding Cassette Subfamily C …; experiment: FACS titration on C6 cells; remark: listed apart in the source
cynomolgus monkey ABCC1 [4] = molecular target: T2, cynomolgus monkey ABCC1 (UniProt Q864R9 1-1531); experiment: FACS titration on C6-cC1 cells
cynomolgus monkey ABCC1 [5] = molecular target: T2, cynomolgus monkey ABCC1; experiment: FACS titration on C6 cells; C6 cells
[6] = molecular target: T1, human ATP Binding Cassette Subfamily C …; experiment: FACS titration on C6-hC1 cells
cynomolgus monkey ABCC1 [7] = molecular target: T2, cynomolgus monkey ABCC1; experiment: FACS titration on C6-cC1 cells; C6 cells
[8] = molecular target: T1, human ATP Binding Cassette Subfamily C …; experiment: FACS titration on C6-hC1 cells; remark: listed apart in the source
cynomolgus monkey ABCC1 [9] = molecular target: T2, cynomolgus monkey ABCC1; experiment: FACS titration on C6-cC1 cells; remark: listed apart in the source
cynomolgus monkey ABCC1 [10] = molecular target: T2, cynomolgus monkey ABCC1; experiment: FACS titration on C6 cells
cynomolgus monkey ABCC1 [11] = molecular target: T2, cynomolgus monkey ABCC1; experiment: FACS cell binding
[12] = molecular target: T1, human ATP Binding Cassette Subfamily C …; experiment: FACS cell binding
cynomolgus monkey ABCC1 [13] = molecular target: T2, cynomolgus monkey ABCC1; experiment: FACS cell binding; remark: listed apart in the source
[14] = molecular target: T1, human ATP Binding Cassette Subfamily C …; experiment: FACS cell binding; remark: listed apart in the source

T2 sequence (Q864R9 whole entry): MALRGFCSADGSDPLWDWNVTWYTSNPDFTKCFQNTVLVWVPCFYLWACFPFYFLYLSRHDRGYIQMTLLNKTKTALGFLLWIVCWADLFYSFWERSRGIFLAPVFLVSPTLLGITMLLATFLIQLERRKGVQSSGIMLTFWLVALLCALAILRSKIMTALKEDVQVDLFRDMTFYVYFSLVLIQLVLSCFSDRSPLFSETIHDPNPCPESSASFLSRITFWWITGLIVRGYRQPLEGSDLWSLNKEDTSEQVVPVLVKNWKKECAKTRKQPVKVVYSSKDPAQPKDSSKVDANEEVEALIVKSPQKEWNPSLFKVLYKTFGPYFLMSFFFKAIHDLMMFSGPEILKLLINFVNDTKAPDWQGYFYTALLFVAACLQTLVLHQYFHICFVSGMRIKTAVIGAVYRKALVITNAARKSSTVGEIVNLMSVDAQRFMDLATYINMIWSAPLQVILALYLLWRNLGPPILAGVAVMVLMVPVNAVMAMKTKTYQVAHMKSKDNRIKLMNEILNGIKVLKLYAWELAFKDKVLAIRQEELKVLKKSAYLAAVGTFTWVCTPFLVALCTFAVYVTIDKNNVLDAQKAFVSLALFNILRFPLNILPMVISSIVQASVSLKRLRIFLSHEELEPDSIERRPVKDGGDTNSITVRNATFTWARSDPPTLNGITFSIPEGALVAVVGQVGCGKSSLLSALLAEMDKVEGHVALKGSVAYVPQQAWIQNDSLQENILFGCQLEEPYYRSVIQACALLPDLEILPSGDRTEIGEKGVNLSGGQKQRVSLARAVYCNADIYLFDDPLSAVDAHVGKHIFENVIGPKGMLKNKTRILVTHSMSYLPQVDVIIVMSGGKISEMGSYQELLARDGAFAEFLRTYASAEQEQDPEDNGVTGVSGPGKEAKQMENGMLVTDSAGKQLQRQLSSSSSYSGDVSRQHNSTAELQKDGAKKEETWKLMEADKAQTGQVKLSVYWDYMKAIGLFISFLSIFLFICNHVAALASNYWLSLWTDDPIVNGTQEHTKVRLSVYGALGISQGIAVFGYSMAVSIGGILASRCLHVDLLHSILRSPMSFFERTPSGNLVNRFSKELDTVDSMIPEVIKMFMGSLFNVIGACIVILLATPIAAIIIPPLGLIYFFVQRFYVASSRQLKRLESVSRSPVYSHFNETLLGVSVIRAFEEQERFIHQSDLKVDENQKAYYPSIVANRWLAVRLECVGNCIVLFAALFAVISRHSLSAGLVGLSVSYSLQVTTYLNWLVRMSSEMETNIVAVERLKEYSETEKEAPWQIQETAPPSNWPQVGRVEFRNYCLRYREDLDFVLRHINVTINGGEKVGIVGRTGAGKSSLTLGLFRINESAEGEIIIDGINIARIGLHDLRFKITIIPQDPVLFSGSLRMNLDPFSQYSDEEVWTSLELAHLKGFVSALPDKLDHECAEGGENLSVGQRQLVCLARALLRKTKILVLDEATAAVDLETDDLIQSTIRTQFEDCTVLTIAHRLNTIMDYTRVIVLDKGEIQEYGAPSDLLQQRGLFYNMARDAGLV

B1: C1.505 (antibody, V domains shown)
VH: EVQLTESGPGLVQPSQTLSLTCTVSGFSLTSNGVSWVRLPPGKGLEWIAAISSGGNIYYNSALKSRLSISRDTSKSQVFLKMNSLQTEDTAIYFCTRERGWNYPGITNGYYFDYWGQGASVTVSS
VL: DIVLTQSPSLLSASVGDRVILSCKAGQKINNYLAWYQQKLGEAPKLLIYNANSLQTGIPSRFSGSGSGTDYTLTISSLQPEDVATYFCQQYNSWYTFGAGTKLEIK
[1]
  Kd: 7.1 nM
[2]
  Kd: 81.2 nM
[3]
  Kd: 35.2 nM

B2: C1.861 (antibody, V domains shown)
VH: EVQLKESGPGLVQPSQTLSLTCTVSGFSLTSNGVTWVRQPPGKGLEWIAAISSGGNIYYNSAVKSRLSISRDTSKSQVFLKMNSLQTEDTAIYFCTRARGTTTAYVMDAWGQGASVTVSS
VL: DVVLTQSPSSLAVSAGETVTINCKSSQSLLYSGNQKNYLAWYQQKPGQSPKLLIYWASTRQSGVPDRFIGSGSGTDFTLTISSVQAEDLAIYYCQQYYDVLMNMFGAGTKLEIK
Cynomolgus monkey ABCC1 [4]
  Kd: 28 nM
Cynomolgus monkey ABCC1 [5]
  Kd: 60.1 nM
[6]
  Kd: 14.7 nM

B3: C1.773 (antibody, V domains shown)
VH: EIQLAQSGPELVKPGASVKMSCKASGYSFIGYFMNWVKQSHGKSLEWIGRINPYNGDTFYNQKFKGKATLTVDKSSSTAHMELRSLTSEDSALYYCTRSGWGYDVYSFDYWGQGTLVTVSS
VL: DIQMTQTPSSLSASLGDRVTISCRASQDISNYLNWYQQKPDGTVKLLIYYTSRLHSGVPSRFSGSGSGTDYSLTISNLEQEDIATYFCQQGNTLPWTFGGGTKLEIK
Cynomolgus monkey ABCC1 [4]
  Kd: 4.6 nM
[1]
  Kd: 2.5 nM
Cynomolgus monkey ABCC1 [5]
  Kd: 19.1 nM
Cynomolgus monkey ABCC1 [7]
  Kd: 4 nM
[6]
  Kd: 3.7 nM
[2]
  Kd: 6.5 nM
[8]
  Kd: 12.7 nM
Cynomolgus monkey ABCC1 [9]
  Kd: 5.9 nM
Cynomolgus monkey ABCC1 [10]
  Kd: 2.7 nM
[3]
  Kd: 1.9 nM

B4: C1.844.hu21 (antibody, V domains shown)
VH: EVQLVESGGGLIQPGGSLRLSCAVSGFSLTSNGVIWVRQPPGKGLEWIAAISSGGNIYYNSGLKSRLTISRDTSKNTVYLQMNSLRAEDTAVYYCTRARGTTTAYVMDAWGQGTLVTVSS
VL: DIVMTQSPDSLAVSLGERATINCKSSQSLLYSVNQKNYLAWYQQKPGQSPKLLIYWASTRQSGVPDRFSGSGSGTDFTLTISSLQAEDVAVYYCQQYYDTLMKMFGAGTKLELK
Cynomolgus monkey ABCC1 [11]
  Kd: 83 nM
[12]
  Kd: 103 nM
Cynomolgus monkey ABCC1 [7]
  Kd: 11 nM

B5: C1.861.hu21 (antibody, V domains shown)
VH: EVQLVESGGGLIQPGGSLRLSCAVSGFSLTSNGVTWVRQPPGKGLEWIAAISSGGNIYYNSAVKSRLTISRDTSKNTVYLQMNSLRAEDTAVYFCTRARGTTTAYVMDAWGQGTTVTVSS
VL: DVQLTQSPSSLSASVGDRVTITCKSSQSLLYSGNQKNYLAWYQQKPGKSPKLLIYWASTRQSGVPSRFSGSGSGTDFTLTISSLQPEDVATYYCQQYYDVLMNMFGGGTKLEIK
Cynomolgus monkey ABCC1 [11]
  Kd: 37 nM
[12]
  Kd: 38 nM
Cynomolgus monkey ABCC1 [7]
  Kd: 11 nM

B6: C1.851.hu15 (antibody, V domains shown)
VH: EVQLQESGPGLVKPSETLSLTCTVSGFSLTNNGVSWIRQPPGKGLEWIAAISSGGNIYYNSAFKSRLTISRDTSKNQVSLKLSSVTAADTAVYYCARHRGYYGYNWGYFDYWGQGTLVTVSS
VL: DVVMTQAPSSLSASLGERISLTCRASQDIYGSLNWFQQKPDGTIKLLIYGTSSLDSGVPKRFSGSRSGSDYSLTISSLESEDFADYYCLQYASSPYTFGGGTKLEIK
Cynomolgus monkey ABCC1 [13]
  Kd: 210 nM
[14]
  Kd: 119 nM

B7: C1.851.hu14 (antibody, V domains shown)
VH: EVQLQESGPGLVKPSETLSLTCTVSGFSLTNNGVSWIRQPPGKGLEWIAAISSGGNIYYNSAFKSRLTISRDTSKNQVSLKLSSVTAADTAVYYCARHRGYYGYNWGYFDYWGQGTLVTVSS
VL: DVVMTQTPLSLPVSLGDQASISCRSSQSIVHSNGNTYLEWYLQKPGQSPKLLIYKVSNRFSGVPDRFSGSGTGTDFTLKISRVEAEDLGVYYCFQGSHVPRTFGGGTKLEIK
Cynomolgus monkey ABCC1 [13]
  Kd: 2030 nM
[14]
  Kd: 148 nM

B8: C1.835 (antibody, V domains shown)
VH: EVQLLESGPGLVQPSQTLSLTCTVSGFSLTNNGVSWVRQPPGKGLEWVAAMSSGGNIYYNSAFKSRLSISRHTSKSQVLLKMNSLQTEDTAMYFCARHRGYYGYNWGYFDYWGQGVMVTVSS
VL: NIQLTQSPSLLSASVGDRVTLSCKGSQNIYNYLAWYQQKLGEAPKLLIYKTNSLQTDIPSRFSGSGSGTDYTLTISSLHSEDLATYYCCQYNNGYTFGAGTKLELK
Cynomolgus monkey ABCC1 [10]
  Kd: 575 nM
[3]
  Kd: 144 nM

B9: C1.831 (antibody, V domains shown)
VH: EVQLTESGPGLVQPSQTLSLTCTVSGFSLTSNGVSWVRQPPGKGLEWIAAISSGGNIYYNSVLKSRLSISRDTSKSQVFLKMSSVQTEDTAIYFCTRERGWNYPFITNGYYFDYWGQGVMVTVSS
VL: EIMLTQSPSLLSASVGDRVTLSCKAGQNINNYLAWYQQKLGEAPKLLIYNANSLQTGIPSRFSGSGSGTDYTLTISSLQPEDVATYFCQQYNSWYTFGAGTKLEIK
Cynomolgus monkey ABCC1 [10]
  Kd: 8.7 nM
[3]
  Kd: 11.4 nM

B10: C1.863 (antibody, V domains shown)
VH: EVQRKESGPGLVQPSQTLSLTCTVSGFSLTNNGVSWVRQPPGKGLEWIAAISSGGSIYYNSAFKSRLSISRITSKSQVLLKMNSLQTEDTAMYFCARHRGYYGYNWGYFDYWGQGVMVTVSS
VL: NIQMTQSPSLLSASVGDRVTLSCKGSQNIYNYLAWYQQKLGEAPKLLIYKTSSLQAGIPSRFSGSGSDTDYTLTISSLHSEDLATYYCCQYNNGYTFGAGTKLEIK
Cynomolgus monkey ABCC1 [4]
  Kd: 27.3 nM
[6]
  Kd: 11.7 nM

B11: C1.851.hu12 (antibody, V domains shown)
VH: EVQLQESGPGLVKPSETLSLTCTVSGFSLTNNGVSWIRQPPGKGLEWIAAISSGGNIYYNSAFKSRLTISRDTSKNQVSLKLSSVTAADTAVYYCARHRGYYGYNWGYFDYWGQGTLVTVSS
VL: DIQLTQSPSSLSASVGDRVTITCKGSQNINNYLAWYQQKPGKAPKLLIYKTNSLQTGIPSRFSGSGSGTDYTLTISSLQPEDFATYYCYQYNNGYTFGQGTKLEIK
Cynomolgus monkey ABCC1 [13]
  Kd: 181 nM
[14]
  Kd: 153 nM

B12: C1.787a (antibody, V domains shown)
VH: EVQLTESGPGLVQPSQTLSLTCTVSGFSLTSNGVSWVRQPPGKGLEWIAAISSGGSTYYNSAFKSRLSISRHTSKSQVLLNMNSLQTEDTAMYFCARHRGYYWSNWGYFDYWGQGVMVTVSS
VL: NIQLTQSPSLLSASVGDRVTLSCKGSQNINNYLAWYQQKLGEAPKLLIYKTNSLQTGIPSRFSGSGSGTDYTLTLSSLHSEDLATYYCCQYNDGYTFGAGTKLELK
Cynomolgus monkey ABCC1 [4]
  Kd: 27.6 nM
[1]
  Kd: 4.3 nM
[6]
  Kd: 7.8 nM

B13: C1.831.hu11 (antibody, V domains shown)
VH: EVQLQESGPGLVKPSETLSLTCTVSGFSLTSNGVSWVRQPPGKGLEWIAAISSGGNIYYNSVLKSRLTISRDTSKNQVSLKLSSVTAADTAVYYCTRERGWNYPFITNGYYFDYWGQGTLVTVSS
VL: DIQLTQSPSSLSASVGDRVTITCKAGQNINNYLAWYQQKPGKAPKLLIYNANSLQTGIPSRFSGSGSGTDYTLTISSLQPEDFATYYCQQYNSWYTFGQGTKLEIK
Cynomolgus monkey ABCC1 [11]
  Kd: 27 nM
[12]
  Kd: 21 nM
Cynomolgus monkey ABCC1 [7]
  Kd: 11 nM

B14: C1.827 (antibody, V domains shown)
VH: EVQLVESGPGLVQPSQTLSLTCTVSGFSLTNNGVSWVRQPPGKGLEWIAAISNGGNIYHNSALKSRLSISRNTAKSQVLLKMNSLQTEDTAMYFCARHRGYYGYNWGYFDYWGQGASVTVSS
VL: NIQVTQSPSLLSASVGDRVTLSCKGSQNIYNYLAWYQQKLGEAPKLLIYKTNSLQTGIPSRFSGSGSGTDYTLTISSLHSEDLATYYCCQYNNGYTFGAGTKLELK
Cynomolgus monkey ABCC1 [10]
  Kd: 67.3 nM
[3]
  Kd: 134 nM
